The labels stand for the following.
B1: Fe(III) BP E203C-acrylodan (conjugate, UniProt P35755 24-332, looked up, variant E203C)
Iron-utilization periplasmic …: DITVYNGQHKEAATAVAKAFEQETGIKVTLNSGKSEQLAGQLKEEGDKTPADVFYTEQTATFADLSEAGLLAPISEQTIQQTAQKGVPLAPKKDWIALSGRSRVVVYDHTKLSEKDMEKSVLDYATPKWKGKIGYVSTSGAFLEQVVALSKMKGDKVALNWLKGLKENGKLYAKNSVALQAVENGEVPAALINNYYWYNLAKCKGVENLKSRLYFVRHQDPGALVSYSGAAVLKASKNQAEAQKFVDFLASKKGQEALVAARAEYPLRADVVSPFNLEPYEKLEAPVVSATTAQDKEHAIKLIEEAGLK
modifications: acrylodan label
B2: ribose BP L265C JPW4045 (conjugate, UniProt P02925 26-296, looked up, variant L265C)
Ribose import binding protein …: KDTIALVVSTLNNPFFVSLKDGAQKEADKLGYNLVVLDSQNNPAKELANVQDLTVRGTKILLINPTDSDAVGNAVKMANQANIPVITLDRQATKGEVVSHIASDNVLGGKIAGDYIAKKAGEGAKVIELQGIAGTSAARERGEGFQQAVAAHKFNVLASQPADFDRIKGLNVMQNLLTAHPDVQAVFAQNDEMALGALRALQTAGKSDVMVVGFDGTPDGEKAVNDGKLAATIAQLPDQIGAKGVETADKVLKGEKVQAKYPVDCKLVVKQ
modifications: JPW4045 label
B3: ribose BP L265C Acrylodan (conjugate, UniProt P02925 26-296, looked up, variant L265C)
Ribose import binding protein …: B2 Ribose import binding protein …
modifications: acrylodan conjugate
B4: ribose BP T135C Acrylodan (conjugate, UniProt P02925 26-296, looked up, variant T135C)
Ribose import binding protein …: B2 Ribose import binding protein … with T135C, C265L
modifications: acrylodan conjugate
B5: ribose BP T135C NBD (conjugate, UniProt P02925 26-296, looked up, variant T135C)
Ribose import binding protein …: B2 Ribose import binding protein … with T135C, C265L
modifications: NBD dye conjugate
B6: ribose BP T135C JPW4042 (conjugate, UniProt P02925 26-296, looked up, variant T135C)
Ribose import binding protein …: B2 Ribose import binding protein … with T135C, C265L
modifications: JPW4042 dye conjugate
B7: ribose BP L265C NBD (conjugate, UniProt P02925 26-296, looked up, variant L265C)
Ribose import binding protein …: B2 Ribose import binding protein …
modifications: NBD dye conjugate
B8: ribose BP T135C Fluorescein (conjugate, UniProt P02925 26-296, looked up, variant T135C)
Ribose import binding protein …: B2 Ribose import binding protein … with T135C, C265L
modifications: fluorescein conjugate
B9: Fe(III) BP E57D: Fe(III) BP with Glu57 substituted by Asp to weaken Fe(III) affinity (protein, UniProt P35755 24-332, looked up, variant E57D)
Iron-utilization periplasmic …: B1 Iron-utilization periplasmic … with E57D, C203E

Residue numbers refer to the chain shown, from its start. In names and notes the source's numbering stands.

The Kd is the constant that tells how readily two partners part at equilibrium.

One test is described as follows: Fluorimetric titration of Fe(III) BP (E57D) conjugates with Fe(III) citrate. In kind it is binding. Particulars: E57D background, read-out: Kd of Fe(III) BP conjugate. On the procedure: (§1) Fluorimetry. All measurements were conducted with an SLM Aminco-Bowman series 2 fluorimeter, with sample stirring at 25° C. Fluorescence emission spectra were acquired with excitation and emission slit widths of 4 and 8 nm, respectively. Photomultiplier tube potential was maintained between 400 and 800 volts. Protein concentrations were in the range of 50 to 1000 nM. Fluorophore-specific excitation was at the following approximate wavelengths: tryptophan, 290 nm; acrylodan, 390 nm; fluorescein, 485 nm; pyrene, 340 nm; NBD and NBDE, 490 nm; JPW4039, 485 nm; JPW4042, 470 nm; JPW4045, 470 nm.
Corrections were made for dilution of the protein and for background signal from buffer. Binding curves were fit to binding isotherms using equation 3 or 4, as appropriate.
Analyte affinity measurements. […] The emission wavelength monitored was that of maximum difference in intensity between the ligand-free and bound states. For each conjugate, fluorescence intensiometric observations were fit to a hyperbolic binding isotherm for a two-state model (Marvin et al., Proc. Natl. Acad. Sci. USA 94:4366-4371, 1997): […]
As for B1, the Kd is roughly 138 µM.

Another test in a line: Fluorescence emission spectra without and with saturating ligand (wavelength shift, ΔIstd, ΔRmax). Particulars: standard intensity change, unbound vs ligand-saturated. On the procedure:
as §1
Assessment of fluorescent biosensor function. Fluorescence emission spectra of bPBP-fluorophore conjugates were recorded in the absence and presence of saturating ligand concentrations. Spectral changes were characterized by four parameters: wavelength shift (the difference between the wavelengths of emission maximum in the unbound and ligand-saturated states), direction of intensity change (increase or decrease in intensity at the wavelengths of maximum emission in the two states), standard intensity change (ΔIstd), and standard ratiometric change (ΔR). ΔIstd is defined as the normalized intensity change relative to the average intensity, determined at the wavelength mid-point between the two emission maxima:
[formula] where λstd=(λmax, unbound+λmax, saturated)/2 and I1, I2 are the fluorescence intensities at λstd of each spectrum respectively (FIG. 4A). ΔR is defined in terms of two emission bands, A1 ([λ1, λ2]) and A2 ([λ3, λ4]) (FIG. 4B):
[formula] where ^∘A1, […] the areas in the absence of ligand, and ^∞A1, ^∞A2 the areas in the presence of saturating ligand. A computer program was used to enumerate ΔR for all possible pairs of wavelength bands in the two spectra, to identify the optimal sensing condition, defined as the maximum value of ΔR. Adjustable parameters of the algorithm, and their values used for ΔRmax quantities reported here, are: step size (2 nm), step width (10 nm), minimum integration area limit (fraction of total: 0.1), and maximum integration area limit (fraction of total: 1).
Turning to B2, the ΔIstd is 0.02.

With B3, the ΔIstd is 0.20.

For the molecule B4, the ΔIstd is listed as 0.31.

Turning to B5, the ΔIstd came out at 0.08.

On to B6, for which the ΔIstd came out at 0.02.

As for B7, the ΔIstd was determined as 0.01.

With B8, the ΔIstd is recorded as 0.18.

The same test, now with this note: standard ratiometric change, unbound vs ligand-saturated.
In the case of B2, the ΔRmax was 0.12.

Take B3: the ΔRmax came to 0.70.

B4: the ΔRmax is given as 6.26.

Take B5: the ΔRmax worked out at 0.22.

With B6, the ΔRmax was 0.35.

For B7, the ΔRmax is recorded as 0.13.

On to B8, for which the ΔRmax stood at 1.79.

The next test is described as follows: Fe(III) affinity of Fe(III) BP from competition with Fe(III) chelates / Fe(III) citrate. The test is classed as binding. The conditions noted are these: E57D mutation; assuming logK=10.25 for 1:1 Fe(III) citrate complex; unit inferred. The text has this:
Family of biosensors. A set of eleven bPBPs with widely varying ligand-binding specificities was selected for engineering biosensor function (Table 2). All were from E. coli except Fe(III) BP, which is from Haemophilus influenzae. Binding specificities and affinities of these proteins for their respective ligands have been characterized (references in Table 2). […] Most of these bPBPs bind at most two or three related ligands with high affinity (micromolar or better). […] Measured ligand dissociation constants in these proteins are typically in the range of 0.1 to 1 μM.
Cysteine point mutations were introduced by the PCR overlap method (Ho et al., Gene 77:51-59, 1989). Mutant proteins typically expressed as well as the wild type protein. […] In the case of Fe(III) BP, all mutations were constructed in the E57D background. […] This permitted straightforward determination of Fe(III) affinity by direct titration with Fe(III) citrate at nanomolar concentrations of Fe(III) BP.
B9 displayed a Kd of roughly 0.03 µM.

Values taken from patent publication US9625458B2, “Biosensor” (priority 2002, dated 2017).
